B1: RNA polymerase sigma factor RpoD (Pseudomonas aeruginosa (strain ATCC 15692 / PAO1 / 1C / PRS 101 / LMG 12228)), P26480 (parent)
chain: MSGKAQQQSRLKELIARGREQGYLTYAEVNDHLPEDISDPEQVEDIIRMINDMGINVFETAPDADALLLAEADTDEAAAEEAAAALAAVESDIGRTTDPVRMYMREMGTVELLTREGEIEIAKRIEEGIREVMSAIAQFPGTVDSILADYNRIVAEGGRLSDVLSGYIDPDDGSLPAEEVEPVNLKDDSADSKEKDDEEEESDDSSDSDDEGDGGPDPEEARLRFTAVSEQLDKAKKALKKHGRGSKQATAELTGLAELFMPIKLVPKQFDALVARVRSALEGVRAQERAIMQLCVRDARMPRADFLRLFPNHETDEKWVDSVLKSKPKYAEAIERLRDDILRNQQKLAALESEVELTVAEIKEINRAMSIGEAKARRAKKEMVEANLRLVISIAKKYTNRGLQFLDLIQEGNIGLMKAVDKFEYRRGYKFSTYATWWIRQAITRSIADQARTIRIPVHMIETINKLNRISRQMLQEMGREPTPEELGERMDMPEDKIRKVLKIAKEPISMETPIGDDEDSHLGDFIEDSTMQSPIEMATSESLKESTREVLAGLTAREAKVLRMRFGIDMNTDHTLEEVGKQFDVTRERIRQIEAKALRKLRHPSRSEHLRSFLDE
partner: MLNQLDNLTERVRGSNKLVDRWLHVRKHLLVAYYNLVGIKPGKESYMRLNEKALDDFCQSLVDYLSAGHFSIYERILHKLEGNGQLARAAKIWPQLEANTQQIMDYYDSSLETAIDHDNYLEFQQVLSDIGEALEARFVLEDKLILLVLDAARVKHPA
B2: RNA polymerase sigma factor RpoD (Pseudomonas aeruginosa (strain ATCC 15692 / PAO1 / 1C / PRS 101 / LMG 12228)), P26480 (parent)
chain: B1 chain
partner: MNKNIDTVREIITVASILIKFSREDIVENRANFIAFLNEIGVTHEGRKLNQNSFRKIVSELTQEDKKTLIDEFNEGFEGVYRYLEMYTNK
B3: RNA polymerase sigma factor RpoD (Pseudomonas aeruginosa (strain ATCC 15692 / PAO1 / 1C / PRS 101 / LMG 12228)), P26480 (parent)
chain: B1 chain
partner: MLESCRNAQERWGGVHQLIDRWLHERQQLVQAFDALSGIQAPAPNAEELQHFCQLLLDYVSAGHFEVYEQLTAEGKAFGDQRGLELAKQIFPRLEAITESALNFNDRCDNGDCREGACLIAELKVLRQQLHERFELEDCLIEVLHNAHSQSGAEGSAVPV

Variants of: B1
Details: with rsd_ecoli rsd

Row | Variant | effect of a mutation on the interaction
1 | R600H | decreasing interaction

Variants of: B2
Details: with asia_bpt4 asiA

Row | Variant | effect of a mutation on the interaction
2 | R600H | decreasing interaction

Variants of: B3
Details: with algq_pseae algQ

Row | Variant | effect of a mutation on the interaction
3 | R600H | decreasing interaction
